Reference: publication PMC3605045, “GH1-family 6-P-β-glucosidases from human microbiome lactic acid bacteria” (Acta Crystallographica Section D: Biological Crystallography, 2013)

Molecular target: 6-P-β-glucosidase from Lactobacillus plantarum WCFS1 (LpPgb1) (Lactobacillus plantarum WCFS1)
Assay: SEC; Superdex 200 16/60, 20 mM HEPES-NaOH pH 8.0, 250 mM NaCl, 2 mM DTT, proteins ~3 mg/ml, 1 ml/min, calibrated with ferritin, aldolase, conalbumin and ovalbumin; oligomeric state from the elution volume

6-P-β-glucosidase from Lactobacillus plantarum WCFS1 (LpPgb1) (enzyme)
stoichiometry N: 2
